Assay results: US8623997B2, “Variant Hhip1 protein and methods and uses thereof” (Curis, Inc., priority 2008, dated 2014)

Key:
biotinylated-ShhN-Cys = target: T1, biotinylated-ShhN-Cys (Homo sapiens, UniProt Q15465); assay: Bio-layer interferometry (Octet) binding kinetics of Hhip1β12 variants to Shh; details: for Kd / koff × 10^−4 / kon × 10^3: 1:1 binding model, n.d stands for no binding detected; for Shh binding of Hhip1β12 mutants (in words): bio-layer interferometry, compared with WT Hhip1β12
T1 construct: ShhN-Cys (residues 24-197); His6 (N); made in house; host or cells: E. coli Rosetta 2
Method: The binding kinetics of the Hhip1β12 fragments as well as Hhip1β12 mutants were measured by bio-layer interferometry in the presence or absence of 10 mM EDTA on an Octet (Fortébio). Streptavidin high binding FA biosensors were loaded with biotinylated-ShhN-Cys in kinetic buffer (Fortébio). The loaded biosensors were washed and transferred to wells containing Hhip1β12 protein at concentrations of 1.2, 1.0, 0.8 and 0.6 μM in kinetic buffer. Hhip1β12 association and dissociation was measured for 30 and 20 min, respectively. Kinetic parameters (kon and koff) and affinities (KD) were calculated from a non-linear fit of the data based on a 1:1 binding model between Hhip1β12 and Shh using the Octet software. Multiple independent measurements were performed.
In order to assess the contribution of residues in the Hhip1 L1, L2 and L3 loops for binding to Shh, a series of single alanine Hipβ12 mutants were made using the QuickChange DNA mutagenesis kit (Stratagene) using the manufacturer's protocol, and their affinity for Shh was measured by bio-layer interferometry (as described in Example 2B). These mutations included Hhip1β12 mutants 1312A, E381A, M382A, D383A, D378A, T418A, Q420A, E380A, D387A and ΔL2.

Shh signaling = assay: Gli-luciferase co-culture signaling assay (S12 fibroblasts overlaid with Shh-producing HT29 cells); format: cell-based, murine S12 fibroblasts / human HT29 cells; details: for IC50: 24 hrs, read-out: IC50 inhibition of Shh signaling
From the text: Due to the lack of both N- and C-terminal lipid modifications of Shh and the absence of other cellular components, the in vitro assays may not fully recapitulate Hip-Shh interactions occurring in a cellular environment. Therefore, a co-culture assay consisting of murine S12 fibroblasts stably transfected with a Gli luciferase reporter gene and (Frank-Kamenetsky et al. (2002) J. Biol. 1:10) and human colorectal adenocarcinoma HT29 cells that secrete fully lipid-modified Shh (Yauch et al. (2008) Nature 455:406) was used to determine which extracellular domains of Hhip1β12 mediate inhibition of Shh signaling in mammalian cells.
Briefly, S12 cells, which are 10T1/2 fibroblasts stably transfected with 8× Gli-binding sites fused to a luciferase reporter (Frank-Kamenetsky et al. (2002) J. Biol. 1:10), were plated at 10,000 cells/well of a white-walled clear bottomed 96-well plate (Costar 3610) for […] in regular growth medium (HG-DMEM, 10% FBS, 1% glutamine). After 24 h, the media was removed and Shh-producing HT29 cells at 20,000 cells/well were plated and the co-culture was grown in regular media. After 24 h, the media was changed to 0.5% serum HG-DMEM±Hhip1β12 fragments and further incubated for 24 hrs to stimulate signaling. Gli-luciferase activity was measured using a HTS-Steady Lite luciferase detection kit (Perkin Elmer); multiple assays were carried out, each in triplicate. Data were fit to a 4-parameter sigmoidal equation, from which the IC50 was derived using Kaleidagraph (Synergy Software).

Ptch1 = assay: FACS assay of Shh649 binding to Ptch1 expressing 293 cells and its competition; design: species or system human
Method: Shh649 (1 nM) preincubated with indicated proteins was bound to Ptch1 expressing cells, washed and analyzed by FACS. The average mean Shh649 fluorescence intensity (MFI) of two independent dilution series was plotted versus inhibitor concentration, with error bars denoting standard deviations. […] Assays were carried out using octylated Ihh wildtype and T154I proteins. Concentration dependent relative luciferase units (RLU) are plotted as the average of four independent dilution series±standard deviation and normalized to the maximal Ihh WT stimulation on each plate as 100%. […] The data is representative of three independent experiments.
Shh is in the same orientation as in the Hhip-Shh complex in Panel A. Zn^2+ and Ca^2+ cations are shown. […] Surface representation of Shh with residues within 4.5 Å of Hhip (shaded gray) and Cdon (hatched areas). Area within dotted boarder indicates the boundaries of the Cdon footprint, which overlaps the Hhip binding surface. […] Shh histidine residues are shown as sticks with nitrogen atoms shaded dark. The Hhip L2 loop is shown in transparent surface and Zn^2+ cation is shown. Histidine 35 is not shown since the ordered portion of the Shh structure begins at L40. […] The spectral region of the histidine side chains is shown. […] The average mean Shh649 fluorescence intensity (MFI) of two independent dilution series was plotted versus protein concentration, with error bars denoting standard deviations. Ctrl refers to the His-6 (SEQ ID NO: 87) tagged HGF β protein. […] Shh649 (0.33 nM) was preincubated with 56 nM (170-fold excess) of Hhipβ12 wildtype or L2 mutant proteins, 5E1 or controls then bound to Ptch1 cells (black) or 293 cells (gray), washed and analyzed by FACS. Shh649 binding to Ptch1 cells in the absence of inhibitors was normalized to 100% and the data expressed as a percentage of this signal (average of two independent duplicates with standard deviations). Ctrl and CtrlFc refer to HGF β and the IgG1 isotype control Trastuzumab, respectively. The data is representative of at least three independent experiments.
Shh649, conjugated to Dylight 649 (Pierce) at its C-terminus (vide supra), was incubated at 0.33 or 1 nM for 1 h on ice with various Hhip or control proteins prior to incubation with HEK-293 cells (293) or 293 cells expressing full length human Patched-1 (Ptch1-293 clone 10) (Carpenter D. et al. (1998) Proc. Natl. Acad. Sci. USA 95:13630-13634) in FACS buffer (3% FBS in PBS) for 1 h on ice. After washing 3 times in FACS buffer, live cells (sorted by propidium iodide exclusion) were analyzed by flow cytometry in the APC channel using a FACSCalibur (BD Biosciences). Control proteins included His6-Shh, His6-Ihh, HGF β-His639, Trastuzumab (Genentech, Inc.) as a human IgG1 isotype control for Hhip1β12-Fc, and mIgG1 (Molecular Probes Z25105) as a murine Mab control for anti-Shh 5E1 Mab34.

Molecule	Kd (biotinylated-ShhN-Cys) [nM]	koff × 10^−4 (biotinylated-ShhN-Cys)	kon × 10^3 (biotinylated-ShhN-Cys)	IC50 (Shh signaling; Gli-luciferase co-culture) [nM]	binding to Shh in the presence of EDTA (biotinylated-ShhN-Cys; 10 mM EDTA)	IC50 fold higher than Hhip1ECD (Shh signaling; Gli-luciferase co-culture)	Shh binding of Hhip1β12 mutants (in words) (biotinylated-ShhN-Cys)	inhibitory activity (in words) (Shh signaling; Gli-luciferase co-culture)	competition of Shh649 binding to Ptch1 cells (in words) (Ptch1)	maximal inhibition (Shh signaling; at saturating conditions) [%]	Shh binding of Hhip1β12 mutants (in words) (biotinylated-ShhN-Cys; listed as 1312A)
Hhip1ECD: Hhip1 extracellular domain construct (SEQ ID NO:11), residues 20-667 of SEQ ID NO:2 (protein, listed as Homo sapiens) SNYLDQMEEYDKVEEISRKHKHNCFCIQEVVSGLRQPVGALHSGDGSQRLFILEKEGYVKILTPEGEIFKEPYLDIHKLVQSGIKGGDERGLLSLAFHPNYKKNGKLYVSYTTNQERWAIGPHDHILRVVEYTVSRKNPHQVDLRTARVFLEVAELHRKHLGGQLLFGPDGFLYIILGDGMITLDDMEEMDGLSDFTGSVLRLDVDTDMCNVPYSIPRSNPHFNSTNQPPEVFAHGLHDPGRCAVDRHPTDININLTILCSDSNGKNRSSARILQIIKGKDYESEPSLLEFKPFSNGPLVGGFVYRGCQSERLYGSYVFGDRNGNFLTLQQSPVTKQWQEKPLCLGTSGSCRGYFSGHILGFGEDELGEVYILSSSKSMTQTHNGKLYKIVDPKRPLMPEECRATVQPAQTLTSECSRLCRNGYCTPTGKCCCSPGWEGDFCRTAKCEPACRHGGVCVRPNKCLCKKGYLGPQCE	67	7.9 × 10^−4 [s^−1]	1.2 × 10^3 [M^−1 × s^−1]	5.3	–	–	–	–	–	–	–
Hhip1β1: β-propeller-EGF1 construct (SEQ ID NO:13), residues 193-637 of SEQ ID NO:2 (protein, listed as Homo sapiens) SNYLDQMEEYDKVEEISRKHKHNCFCIQEVVSGLRQPVGALHSGDGSQRLFILEKEGYVKILTPEGEIFKEPYLDIHKLVQSGIKGGDERGLLSLAFHPNYKKNGKLYVSYTTNQERWAIGPHDHILRVVEYTVSRKNPHQVDLRTARVFLEVAELHRKHLGGQLLFGPDGFLYIILGDGMITLDDMEEMDGLSDFTGSVLRLDVDTDMCNVPYSIPRSNPHFNSTNQPPEVFAHGLHDPGRCAVDRHPTDININLTILCSDSNGKNRSSARILQIIKGKDYESEPSLLEFKPFSNGPLVGGFVYRGCQSERLYGSYVFGDRNGNFLTLQQSPVTKQWQEKPLCLGTSGSCRGYFSGHILGFGEDELGEVYILSSSKSMTQTHNGKLYKIVDPKRPLMPEECRATVQPAQTLTSECSRLCRNGYCTPTGKCCCSPGWEGDFCRTA	150	2.3 × 10^−4 [s^−1]	1.5 × 10^3 [M^−1 × s^−1]	20.3	completely abolished	about 4 fold	–	–	–	–	–
Hhip1ΔL2: Hhip1β12 mutant with deletion of the entire L2 loop (protein) SNYLDQMEEYDKVEEISRKHKHNCFCIQEVVSGLRQPVGALHSGDGSQRLFILEKEGYVKILTPEGEIFKEPYLDIHKLVQSGIKGGDERGLLSLAFHPNYKKNGKLYVSYTTNQERWAIGPHDHILRVVEYTVSRKNPHQVDLRTARVFLEVAELHRKHLGGQLLFGPDGFLYIILGDGMITTGSVLRLDVDTDMCNVPYSIPRSNPHFNSTNQPPEVFAHGLHDPGRCAVDRHPTDININLTILCSDSNGKNRSSARILQIIKGKDYESEPSLLEFKPFSNGPLVGGFVYRGCQSERLYGSYVFGDRNGNFLTLQQSPVTKQWQEKPLCLGTSGSCRGYFSGHILGFGEDELGEVYILSSSKSMTQTHNGKLYKIVDPKRPLMPEECRATVQPAQTLTSECSRLCRNGYCTPTGKCCCSPGWEGDFCRTAKCEPACRHGGVCVRPNKCLCKKGYLGPQCEHHHHHH	–	–	–	–	–	–	abrogated binding to Shh	no inhibitory activity	no inhibition	–	–
D383A: L2 loop single alanine variant made in the Hhip1β12 construct (protein) SNYLDQMEEYDKVEEISRKHKHNCFCIQEVVSGLRQPVGALHSGDGSQRLFILEKEGYVKILTPEGEIFKEPYLDIHKLVQSGIKGGDERGLLSLAFHPNYKKNGKLYVSYTTNQERWAIGPHDHILRVVEYTVSRKNPHQVDLRTARVFLEVAELHRKHLGGQLLFGPDGFLYIILGDGMITLDDMEEMAGLSDFTGSVLRLDVDTDMCNVPYSIPRSNPHFNSTNQPPEVFAHGLHDPGRCAVDRHPTDININLTILCSDSNGKNRSSARILQIIKGKDYESEPSLLEFKPFSNGPLVGGFVYRGCQSERLYGSYVFGDRNGNFLTLQQSPVTKQWQEKPLCLGTSGSCRGYFSGHILGFGEDELGEVYILSSSKSMTQTHNGKLYKIVDPKRPLMPEECRATVQPAQTLTSECSRLCRNGYCTPTGKCCCSPGWEGDFCRTAKCEPACRHGGVCVRPNKCLCKKGYLGPQCEHHHHHH	–	–	–	–	–	–	inability	retained activity	–	~85	–
I312A: L1 loop single alanine variant made in the Hhip1β12 construct (protein) SNYLDQMEEYDKVEEISRKHKHNCFCIQEVVSGLRQPVGALHSGDGSQRLFILEKEGYVKILTPEGEIFKEPYLDIHKLVQSGIKGGDERGLLSLAFHPNYKKNGKLYVSYTTNQERWAAGPHDHILRVVEYTVSRKNPHQVDLRTARVFLEVAELHRKHLGGQLLFGPDGFLYIILGDGMITLDDMEEMDGLSDFTGSVLRLDVDTDMCNVPYSIPRSNPHFNSTNQPPEVFAHGLHDPGRCAVDRHPTDININLTILCSDSNGKNRSSARILQIIKGKDYESEPSLLEFKPFSNGPLVGGFVYRGCQSERLYGSYVFGDRNGNFLTLQQSPVTKQWQEKPLCLGTSGSCRGYFSGHILGFGEDELGEVYILSSSKSMTQTHNGKLYKIVDPKRPLMPEECRATVQPAQTLTSECSRLCRNGYCTPTGKCCCSPGWEGDFCRTAKCEPACRHGGVCVRPNKCLCKKGYLGPQCEHHHHHH	320	4.8 × 10^−4 [s^−1]	1.5 × 10^3 [M^−1 × s^−1]	–	–	–	–	essentially identical to wildtype Hhip1β12	–	–	little effect on Shh
